One molecule from paper PMC6598686 (Molecular cell, 2019) can be followed below.

The target of the assay is human linker histone H1.4 (human, UniProt P10412 1-219). Put plainly: pull-down.
human linker histone H1.4, sequence (P10412 whole entry): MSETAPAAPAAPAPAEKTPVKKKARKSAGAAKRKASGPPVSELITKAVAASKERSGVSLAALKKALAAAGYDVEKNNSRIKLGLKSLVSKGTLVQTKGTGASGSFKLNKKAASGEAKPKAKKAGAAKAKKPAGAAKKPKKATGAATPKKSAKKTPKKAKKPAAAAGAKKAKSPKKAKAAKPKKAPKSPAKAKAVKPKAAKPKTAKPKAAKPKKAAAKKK

B1: His-tagged NAP1(160-312) (domain or fragment, human, UniProt P55209 160-312, looked up)
chain: EKEDPKGIPEFWLTVFKNVDLLSDMVQEHDEPILKHLKDIKVKFSDAGQPMSFVLEFHFEPNEYFTNEVLTKTYRMRSEPDDSDPFSFDGPEIMGCTGCQIDWKKGKNVTLKTIKKKQKHKGRGTVRTVTKTVSNDSFFNFFAPPEVPESGDL
With B1, the binding result is listed as “binds”.
